Test results taken from patent publication US20150299335A1 (X BODY, published 2015).

Experiments:
[1] = target: T1, HER2 (UniProt P04626 23-652, limits assumed); assay: saturation binding curve, CPM against Her 2 (nM), 0 to 50 nM, plateau about 470 CPM; the text does not name the assay [upper left graph]
T1 construct: also called receptor tyrosine-protein kinase erbB-2

[2] = target: T1, HER2; assay: surface plasmon resonance (Biacore)
[3] = target: T1, HER2; assay: surface plasmon resonance (Biacore Kinetics), table under the sensorgrams [table at the bottom]
[4] = target: T1, HER2; assay: saturation binding curve, CPM against Her 2 (nM), 0 to 50 nM, plateau about 470 CPM; the text does not name the assay [left graph]

Kd [1]: 1.4 nM | Kd [2]: 1.2 nM | kon [2]: 139000 M⁻¹ s⁻¹ | Kd [3]: 1.2 nM | koff [3]: 0.000167 s⁻¹ | kon [3]: 139000 M⁻¹ s⁻¹ | Kd [4]: 1.4 nM
B1: B8 anti-HER2 VH domain (other)
VH: EVQLVESGAEVKEPGASVKVSCKSSGYSFTGNYMHWVRQAPGQGLEWMGWMNPKSGGTYYAQKFQGRVTMTWDTSISTAYMELSGLTSDDTAVYYCARWARGSTSPHGLDVWGQGTLVTVSS
notes: Stand-alone antibody VH domain with no light chain; also called B8 VH domain; B8 VH
